Measurements taken from US20230312758A1, “BISPECIFIC ANTIBODY AGAINST CD3 AND CD20 IN COMBINATION THERAPY FOR TREATING FOLLICULAR LYMPHOMA” (GENMAB A/S, priority 2020, published 2023).

Tests used:
[1] = test system: CD20-expressing Raji-luc tumor cells; conditions: NOD-SCID mice injected with Raji-luc tumor cells and PBMCs; even in presence of excess IgG1-RTX-FEAR; cited from earlier work
[2] = test system: CD20-expressing Daudi cells; test: DuoBody-CD3xCD20-induced T-cell-mediated cytotoxicity assay; assay type: cell-based; conditions: T cells pre-treated with lenalidomide and anti-CD3; E:T ratio 2:1
Procedure: T cells were incubated with (5 or 50 μM) or without lenalidomide in the absence or presence of immobilized anti-CD3 for 3 days. T cells were then used in a cytotoxicity assay with DuoBody-CD3xCD20 or DuoBody-CD3xctrl (containing a CD3 arm and a non-binding control arm) and CD20-expressing Daudi cells as target cells (E:T ratio 2:1). Data shown are average percentages cytotoxicity ±SD of duplicates, normalized to medium control (no antibody, no lenalidomide).
(§1) This experiment was performed to determine the impact of lenalidomide on Duobody-CD3xCD20-induced T-cell activation and T-cell-mediated cytotoxicity.
(§2) Briefly, T cells were activated with immobilized anti-CD3 in the presence (5 or 50 μM) or absence of lenalidomide for 3 days. […] T cells that were activated in the presence or absence of lenalidomide were subsequently tested for their cytotoxic capacity in response to epcoritamab.

R/R B-NHL = test: epcoritamab monotherapy clinical trial (NCT03625037); assay type: in vivo, human; conditions: R/R B-NHL patients, preliminary data
Description: Epcoritamab as monotherapy is currently in a clinical trial for the treatment of R/R B-NHL (ClinicalTrials.gov Identifier: NCT03625037).

R/R follicular lymphoma = test: Phase 1b study of epcoritamab with rituximab and lenalidomide (R^2); assay type: in vivo, human; conditions: preliminary data
Procedure: The trial is conducted in 2 parts: dose escalation (Part 1) and expansion (Part 2). Subjects participate in only one part. Both parts consist of a screening period, a treatment period, a safety follow-up period, and a survival follow-up period.
The Part 1 dose escalation assesses the initial safety, tolerability, and clinical activity of epcoritamab in combination with R^2. Epcoritamab is initially be administered in combination with R^2 in a 3-subject cohort. DLTs are evaluated during the first 28 days. […]
In Part 2, epcoritamab is administered (with the dosing regimen determined in the dose escalation part) in combination with R^2. […]
Disease response is assessed according to both Lugano criteria (described in Cheson et al., J Clin Oncol 2014; 32:3059-68 (see, in particular, Table 3 in Cheson et al., 2014) and LYRIC (Table 8) to inform decisions on continuation of treatment. […]
Safety is assessed by measuring adverse events, laboratory test results, ECGs, vital sign measurements, physical examination findings, and ECOG performance status. Also assessed are immune effector cell-associated neurotoxicity syndrome (e.g., as described by Lee et al., Biol BloodMarrow Transplant 2019; 25:625-638), constitutional symptoms (B symptoms), tumor flare reaction, and survival. […]

[3] = test system: primary DLBCL and follicular lymphoma patient biopsies; conditions: cited from earlier work
T cells = test: T-cell activation with immobilized anti-CD3 in presence or absence of lenalidomide; assay type: cell-based; conditions: 5 or 50 μM lenalidomide, CD3 crosslinking, 3 days; compared to no lenalidomide
Procedure: T cells were pre-incubated with assay medium or lenalidomide in the absence or presence of CD3 crosslinking by immobilized anti-CD3 for 3 days (as indicated on the x-axes), after which upregulation of CD69, CD25, PD-1 and LAMP-1 on CD4^+ and CD8^+ T cells was determined by flow cytometry. Data shown are geomean fluorescence intensities (FI) for four donors (each circle represents one condition for one donor). Pre-incubation conditions are shown on the x-axis.
as §1, §2

follicular lymphoma = conditions: double-refractory cases; cited from earlier work
CD20 = target: T1, CD20 (Homo sapiens, UniProt P11836); conditions: rituximab versus IgG1-CD20; bind to a different epitope; cited from earlier work
T1 sequence (P11836 1-297): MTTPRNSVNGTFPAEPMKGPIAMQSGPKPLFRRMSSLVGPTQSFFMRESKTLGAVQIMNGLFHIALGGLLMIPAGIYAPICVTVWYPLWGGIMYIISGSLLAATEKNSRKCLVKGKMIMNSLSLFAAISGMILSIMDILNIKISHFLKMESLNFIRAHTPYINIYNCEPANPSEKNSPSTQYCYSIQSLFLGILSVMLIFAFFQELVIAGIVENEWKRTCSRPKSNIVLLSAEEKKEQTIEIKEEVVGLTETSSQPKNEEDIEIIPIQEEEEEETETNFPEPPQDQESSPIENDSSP

epcoritamab: IgG1 bispecific CD3xCD20 antibody; heavy/light chain pairs SEQ ID NOs: 24/25 and 26/27; CAS 2134641-34-0
tumor growth [1]: effectively reduce tumor growth
cytotoxicity (dose response) [2]: Higher maximum percent cytotoxicity and higher activity at lower epcoritamab concentrations
tolerated dose (R/R B-NHL; including 60 mg): at least 48 mg
dose-limiting toxicities (R/R B-NHL): no dose-limiting toxicities reported
incidence of CRS compared with single-agent epcoritamab (R/R follicular lymphoma): relatively lower incidence of CRS with the combination
tumor cell kill ([3]; biopsy taken 2 weeks after administering the anti-CD20 antibody): up to 40%
T-cell-mediated cytotoxicity [3]: induced T-cell-mediated cytotoxicity

Nc1cccc2c1CN(C1CCC(=O)NC1=O)C2=O (centres unmarked) [lenalidomide, 3-(4-Amino-1-oxo-1,3-dihydro-2H-isoindol-2-yl) piperidine-2,6-dione]
T-cell activation (CD69, CD25 upregulation, release of granzyme B and IFNγ) (T cells): increased T-cell activation

CC[C@H](Nc1ncnc2[nH]cnc12)c1nc2cccc(F)c2c(=O)n1-c1ccccc1 [idelalisib]
1-year PFS (follicular lymphoma): 43%
toxicities (follicular lymphoma): several toxicities leading to treatment discontinuation

IgG1-CD20: antibody of which the CD20 arm of epcoritamab is derived
competition for CD20 binding (CD20): compete for CD20 binding
